Reference: US20080199514A1 (BURNHAM INSTITUTE, published 2008)
Substitutions are numbered along the chain they refer to.

T1: Lck phosphopeptide (ARLIEDNEpYTAAREG)
T1 chain: ARLIEDNEYTAAREG

B1: S-tagged LYP polypeptide corresponding to amino acid residues 603-710 with arginine at position 620 (other, human, UniProt Q9Y2R2 603-710, looked up)
chain: LATAPRIDDEIPPPLPVRTPESFIVVEEAGEFSPNVPKSLSSAVKVKIGTSLEWGGTSEPKKFDDSVILRPSKSVKLRSPKSELHQDRSSPPPPLPERTLESFFLADE
notes: Expressed in E. coli BL21; also called Construct 1; not shown: S-tag and other vector-derived residues from pET-30 (Novagen)
B2: S-tagged LYP polypeptide corresponding to amino acid residues 603-710 with tryptophan at position 620 (other, human, UniProt Q9Y2R2 603-710, looked up)
chain: B1 chain with R18W
notes: Expressed in E. coli BL21; also called Construct 2; not shown: S-tag and other vector-derived residues from pET-30 (Novagen)
B3: full length Hemagglutinin (HA) tagged LYP having R620 (protein)
chain: MDQREILQKFLDEAQSKKITKEEFANEFLKLKRQSTKYKADKTYPTTVAEKPKNIKKNRYKDILPYDYSRVELSLITSDEDSSYINANFIKGVYGPKAYIATQGPLSTTLLDFWRMIWEYSVLIIVMACMEYEMGKKKCERYWAEPGEMQLEFGPFSVSCEAEKRKSDYIIRTLKVKFNSETRTIYQFHYKNWPDHDVPSSIDPILELIWDVRCYQEDDSVPICIHCSAGCGRTGVICAIDYTWMLLKDGIIPENFSVFSLIREMRTQRPSLVQTQEQYELVYNAVLELFKRQMDVIRDKHSGTESQAKHCIPEKNHTLQADSYSPNLPKSTTKAAKMMNQQRTKMEIKESSSFDFRTSEISAKEELVLHPAKSSTSFDFLELNYSFDKNADTTMKWQTKAFPIVGEPLQKHQSLDLGSLLFEGCSNSKPVNAAGRYFNSKVPITRTKSTPFELIQQRETKEVDSKENFSYLESQPHDSCFVEMQAQKVMHVSSAELNYSLPYDSKHQIRNASNVKHHDSSALGVYSYIPLVENPYFSSWPPSGTSSKMSLDLPEKQDGTVFPSSLLPTSSTSLFSYYNSHDSLSLNSPTNISSLLNQESAVLATAPRIDDEIPPPLPVRTPESFIVVEEAGEFSPNVPKSLSSAVKVKIGTSLEWGGTSEPKKFDDSVILRPSKSVKLRSPKSELHQDRSSPPPPLPERTLESFFLADEDCMQAQSIETYSTSYPDTMENSTSSKQTLKTPGKSFTRSKSLKILRNMKKSICNSCPPNKPAESVQSNNSSSFLNFGFANRFSKPKGPRNPPPTWNI

What was measured:
GST tag alone = target: T2, GST tag alone (UniProt P08515 1-218 = GST); assay: GST pull-down with glutathione-agarose from E. coli BL21 lysates, S-protein-HRP blot
T2 construct: Negative control of the pull-down; also called GST alone
Protocol: The s-tagged constructs were prepared using pET-30, (Novagen, San Diego, Calif. 92121), however, other vector systems can be used. […] The constructs were equally expressed using E. coli BL21. Either a GST-Tagged SH3 domain of Csk or a GST tag alone was co-expressed with the LYP fragment constructs. A glutathione-agarose bead was added to each of the BL21 lysates. Precipitated proteins were separated by gel-electrophoresis and transferred to a nitrocellulose filter. The filters were incubated with S-protein HRP and ECL reagent to allow for chemiluminescent detection of Csk bound LYP. […] None of the constructs precipitated when co-expressed with GST alone. In this example, bound material was detected using S-protein-horseradish peroxidase.

[1] = target: T3, endogenous Csk from Jurkat T cells (UniProt P41240 2-450, limits assumed); assay: S-tag pull-down from Jurkat T cell lysate, anti-Csk blot
T3 construct: mature; Native protein in the cell lysate
Protocol: Jurkat T cells, which endogenously express Csk, were lysed and the protein lysate was subjected to a pull down assay using S-tagged LYP either having R620 or having W620. A blot was performed and detection was carried out using an anti-Csk primary antibody in a two-stage detection system.

[2] = target: T1, Lck phosphopeptide (ARLIEDNEpYTAAREG)

T2 sequence (P08515 whole entry): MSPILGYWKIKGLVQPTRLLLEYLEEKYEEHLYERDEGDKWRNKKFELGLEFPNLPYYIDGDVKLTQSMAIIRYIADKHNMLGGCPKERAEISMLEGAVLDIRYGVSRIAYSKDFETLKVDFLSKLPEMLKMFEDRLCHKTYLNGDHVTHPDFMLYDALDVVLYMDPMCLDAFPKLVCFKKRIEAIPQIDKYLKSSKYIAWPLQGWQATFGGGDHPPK
T3 sequence (P41240 2-450 limits assumed): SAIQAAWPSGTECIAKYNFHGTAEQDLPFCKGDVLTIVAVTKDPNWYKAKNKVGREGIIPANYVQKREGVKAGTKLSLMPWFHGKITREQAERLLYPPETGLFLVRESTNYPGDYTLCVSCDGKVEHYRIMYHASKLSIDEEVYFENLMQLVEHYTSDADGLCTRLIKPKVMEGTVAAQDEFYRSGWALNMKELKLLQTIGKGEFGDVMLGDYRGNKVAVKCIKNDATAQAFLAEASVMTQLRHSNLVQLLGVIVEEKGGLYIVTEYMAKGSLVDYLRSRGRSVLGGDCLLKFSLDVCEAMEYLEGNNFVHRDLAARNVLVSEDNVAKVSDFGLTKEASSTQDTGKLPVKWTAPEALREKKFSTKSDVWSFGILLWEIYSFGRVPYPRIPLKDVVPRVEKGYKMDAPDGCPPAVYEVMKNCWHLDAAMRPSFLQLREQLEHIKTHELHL

Row | Binder | binding result (GST tag alone) | binding result [1] | Dephosphorylation of an Lck phosphopeptide by immunoprecipitated HA-tagged LYP [2]
1 | B1 | no binding |  | 
2 | B2 | no binding | no binding | 
3 | B3 |  |  | Immunoprecipitated LYP*R620 dephosphorylated 6.312±1.596 pmoles of substrate/min/106 transfected cells (n=5)
